Where a chain is given by its changes, count along the chain named. Names and notes keep the numbering of the source.
B1: TACE: native tumor necrosis factor-alpha converting enzyme catalytic domain (SEQ ID NO: 6), with GS linker and polyHis tag (protein, listed as Homo sapiens)
chain: RADPDPMKNTCKLLVVADHRFYRYMGRGEESTTTNYLIELIDRVDDIYRNTAWDNAGFKGYGIQIEQIRILKSPQEVKPGEKHYNMAKSYPNEEKDAWDVKMLLEQFSFDIAEEASKVCLAHLFTYQDFDMGTLGLAYVGSPRANSHGGVCPKAYYSPVGKKNIYLNSGLTSTKNYGKTILTKEADLVTTHELGHNFGAEHDPDGLAECAPNEDQGGKYVMYPIAVSGDHENNKMFSQCSKQSIYKTIESKAQECFQERSNKV
modifications: GS linker and polyHis tag
B2: V353G: modified TACE catalytic domain, Val353 replaced with glycine (SEQ ID NO: 20) (protein, listed as Homo sapiens)
chain: B1 chain with V139G

Experiments:
Format in all cases: physicochemical
TACE [1] = molecular target: T1, TACE (Homo sapiens, UniProt P78536, N452Q/S266A); assay: Stability of TACE (auto-proteolysis) on storage at 4 degrees Celsius, SDS-PAGE; conditions: TACE 15 mg/ml, seven days
T1 construct: Only the catalytic domain was purified; GS linker + His6 (C); made in house; host or cells: Trichoplusia ni (High5) cells, baculovirus
Protocol: Stability of TACE: The stability of TACE was examined under several buffer conditions at pH 7.5. Twenty microliter aliquots of TACE at 15 mg/ml were desalted over P-6 spin columns (BioRAD, Hercules, Calif.) that had been equilibrated in: • (a) 25 mM Tris, 0.15M NaCl; • (b) 25 mM Tris; or • (c) 25 mM Tris plus N-{D,L-2-(hydroxyaminocarbonyl)methyl-4-methylpentanoyl}-L-3-amino-2-dimethylbutanoyl-L-alanine, 2-(amino)ethyl amide.
The stability of the TACE protein was evaluated after storage at 4 degrees Celsius for seven days. After incubating the TACE polypeptide under the three conditions listed above, Sodium Dodecyl Sulfate PolyAcrylamide Gel Electrophoresis (SDS-PAGE) was performed. […] Moreover, the sequencing data indicated the presence of a single cleavage site at 352Y-V353 of SEQ ID NO: 2.

TACE [2] = molecular target: T1, TACE; assay: Stability of TACE and TACE mutants under different storage conditions, SDS-PAGE; conditions: 25 mM Tris pH 7.5, 4 degrees Celsius, 3 hours
Protocol: (§1) Stability of TACE and TACE mutants: To test for stability under different storage conditions, 20 ul of TACE protein, at 15 mg/ml, was desalted over BIO-RAD P-6 columns equilibrated at pH 7.5 in: • (a) 25 mM Tris, 0.15M NaCl; • (b) 25 mM Tris+1 mM N-{D,L-2-(hydroxyaminocarbonyl)methyl-4-methylpentanoyl}-L-3-amino-2-dimethylbutanoyl-L-alanine, 2-(amino)ethyl amide; or • (c) 25 mM Tris.
(§2) One microliter aliquots were analyzed by SDS-PAGE after storing them for 3 hours, or 17 days at 4 degrees Celsius. […] In direct contrast, all constructs were stable in either 0.15M NaCl, or 1 mM N-{D,L-2-(hydroxyaminocarbonyl)methyl-4-methylpentanoyl}-L-3-amino-2-dimethylbutanoyl-L-alanine, 2-(amino)ethyl amide.

TACE [3] = assay: as above; conditions: 25 mM Tris pH 7.5, 4 degrees Celsius, 17 days
Protocol: as §1, §2

Molecule	SDS-PAGE bands after storage with inhibitor (TACE [1]; 25 mM Tris pH 7.5, 1:1.5 molar ratio enzyme:inhibitor, 4 degrees Celsius)	Proteolysis by SDS-PAGE in the absence of salt (TACE [2])	Proteolysis by SDS-PAGE in the absence of salt (TACE [3])	SDS-PAGE bands after storage without high salt or inhibitor (TACE [1]; 25 mM Tris pH 7.5, 4 degrees Celsius)
CC(C)CC(CC(=O)NO)C(=O)N[C@H](C(=O)N[C@@H](C)C(=O)NCCN)C(C)(C)C (stereo partly drawn) [N-{D,L-2-(hydroxyaminocarbonyl)methyl-4-methylpentanoyl}-L-3-amino-2-dimethylbutanoyl-L-alanine, 2-(amino)ethyl amide, reference compound]	only a single band having a molecular weight of 30 Kd was observed	–	–	–
B1	–	substantial proteolysis	completely proteolyzed	two additional fainter bands
B2	–	–	highly resistant to auto-proteolysis	–

Reference: US7824897B2, “Modified tumor necrosis factor-alpha converting enzyme and methods of use thereof” (Schering Corp., priority 2002, dated 2010)
